Several values for one entry are separate records, joined by “and”; a condition that tells them apart may be missing. Equal values may be shown once.
Assays:
MBP-Orf = target: T1, MBP-Orf (Bacteriophage lambda, UniProt P03765 1-146); assay: EMSA; 5 mM EDTA; better than DS60; EMSA: 50 mM Tris-HCl pH 8.0, 5 mM EDTA (or 1 mM MgCl2), 1 mM DTT, 5% glycerol, 100 ug/ml BSA, on ice 15 min, 4% PAGE; anisotropy: 100 mM Tris-HCl pH 7.0, 10 nM; conditions: protein: recombinant, tags: N-terminal MBP, chain copies: 2, label: 5'-32P on strand 1, blunt
T1 sequence: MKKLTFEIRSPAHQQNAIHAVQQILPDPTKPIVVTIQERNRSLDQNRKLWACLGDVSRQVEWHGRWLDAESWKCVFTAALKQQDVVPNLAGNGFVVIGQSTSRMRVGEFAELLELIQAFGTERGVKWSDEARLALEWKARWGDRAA

[1] = target: T2, E. coli SSB (single-stranded DNA binding protein), wild type (E. coli, UniProt P0AGE0 1-178); assay: far-Western; purified SSB wt or mutant (0.5-5 µg) separated on 15% SDS-PAGE, blotted to PVDF, probed with 20-30 µg YbcN or Orf fused to MBP or GST; detected with anti-MBP or anti-GST antibodies; conditions: both partners purified
T2 construct: also called wt SSB; source: purified as described [13]

[2] = target: the molecule itself; assay: SEC; 1 mg/ml protein on a 24 ml Superose 12 HR 10/30 column in 20 mM Tris-HCl pH 8.0, 1 mM EDTA, 0.5 mM DTT, 150 mM KCl

T2 sequence (P0AGE0 whole entry, the tested form may be a part): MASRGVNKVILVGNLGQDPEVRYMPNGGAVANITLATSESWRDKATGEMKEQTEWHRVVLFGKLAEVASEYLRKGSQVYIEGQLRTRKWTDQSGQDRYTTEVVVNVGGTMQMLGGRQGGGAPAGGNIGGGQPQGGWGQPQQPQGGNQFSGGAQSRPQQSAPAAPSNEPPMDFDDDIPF

B1: BB5 (structured_DNA)
DNA 1: TTTGGTCTAACTTTACCGCTACTAAATGCCGCGGATTGGTTTCGCTGAATCAGGTTATTA
DNA 2: TAATAACCTGATTCAGCGAAACCAATCGCAACCATTTAGTAGCGGTAAAGTTAGACCAAA
- binding result (MBP-Orf; central 5 nt bubble): binds

B2: BB13 (structured_DNA)
DNA 1: TTTGGTCTAACTTTACCGCTACTAAATGCCGCGGATTGGTTTCGCTGAATCAGGTTATTA
DNA 2: TAATAACCTGATTCAGCGAAACATTGTAGGTAAGCTTAGTAGCGGTAAAGTTAGACCAAA
- binding result (MBP-Orf; central 13 nt bubble): binds

B3: MBP-Orf K48A (natural protein, bacteriophage λ)
chain: MKKLTFEIRSPAHQQNAIHAVQQILPDPTKPIVVTIQERNRSLDQNRALWACLGDVSRQVEWHGRWLDAESWKCVFTAALKQQDVVPNLAGNGFVVIGQSTSRMRVGEFAELLELIQAFGTERGVKWSDEARLALEWKARWGDRAA
notes: Orf (NinB) of bacteriophage λ with K48A; Mutant derivative in pMALc2; One paragraph calls residue 48 Arg48, others Lys48; source: E. coli BL21-AI carrying the pMALc2 construct, purified (amylose) as described [13]
- binding result [1]: binds
- stoichiometry N [2]: 2

B4: MBP-Orf V106E (natural protein, bacteriophage λ)
chain: MKKLTFEIRSPAHQQNAIHAVQQILPDPTKPIVVTIQERNRSLDQNRKLWACLGDVSRQVEWHGRWLDAESWKCVFTAALKQQDVVPNLAGNGFVVIGQSTSRMREGEFAELLELIQAFGTERGVKWSDEARLALEWKARWGDRAA
notes: Orf (NinB) of bacteriophage λ with V106E; Mutant derivative in pMALc2; Tends to form multimers or aggregates; source: E. coli BL21-AI carrying the pMALc2 construct, purified (amylose, heparin-agarose)
- binding result [1]: binds
- stoichiometry N [2]: 2 and 4

B5: MBP-Orf W137A (natural protein, bacteriophage λ)
chain: MKKLTFEIRSPAHQQNAIHAVQQILPDPTKPIVVTIQERNRSLDQNRKLWACLGDVSRQVEWHGRWLDAESWKCVFTAALKQQDVVPNLAGNGFVVIGQSTSRMRVGEFAELLELIQAFGTERGVKWSDEARLALEAKARWGDRAA
notes: Orf (NinB) of bacteriophage λ with W137A; Mutant derivative in pMALc2; source: E. coli BL21-AI carrying the pMALc2 construct, purified (amylose) as described [13]
- binding result [1]: binds
- stoichiometry N [2]: 2

B6: MBP-Orf W50A (natural protein, bacteriophage λ)
chain: MKKLTFEIRSPAHQQNAIHAVQQILPDPTKPIVVTIQERNRSLDQNRKLAACLGDVSRQVEWHGRWLDAESWKCVFTAALKQQDVVPNLAGNGFVVIGQSTSRMRVGEFAELLELIQAFGTERGVKWSDEARLALEWKARWGDRAA
notes: Orf (NinB) of bacteriophage λ with W50A; Mutant derivative in pMALc2; source: E. coli BL21-AI carrying the pMALc2 construct, purified (amylose, heparin-agarose)
- binding result [1]: binds
- stoichiometry N [2]: 2

B7: MBP-Orf R103E (natural protein, bacteriophage λ)
chain: MKKLTFEIRSPAHQQNAIHAVQQILPDPTKPIVVTIQERNRSLDQNRKLWACLGDVSRQVEWHGRWLDAESWKCVFTAALKQQDVVPNLAGNGFVVIGQSTSEMRVGEFAELLELIQAFGTERGVKWSDEARLALEWKARWGDRAA
notes: Orf (NinB) of bacteriophage λ with R103E; Mutant derivative in pMALc2; source: E. coli BL21-AI carrying the pMALc2 construct, purified (amylose, heparin-agarose)
- binding result [1]: binds
- stoichiometry N [2]: 2

B8: MBP-Orf Q45A (natural protein, bacteriophage λ)
chain: MKKLTFEIRSPAHQQNAIHAVQQILPDPTKPIVVTIQERNRSLDANRKLWACLGDVSRQVEWHGRWLDAESWKCVFTAALKQQDVVPNLAGNGFVVIGQSTSRMRVGEFAELLELIQAFGTERGVKWSDEARLALEWKARWGDRAA
notes: Orf (NinB) of bacteriophage λ with Q45A; Mutant derivative in pMALc2; source: E. coli BL21-AI carrying the pMALc2 construct, purified (amylose, heparin-agarose)
- binding result [1]: binds
- stoichiometry N [2]: 2

From publication PMC4118853, “Phage Orf Family Recombinases: Conservation of Activities and Involvement of the Central Channel in DNA Binding” (PLoS ONE, 2014)
